From US20240317858A1 (Adimab, published 2024)
Changes are numbered by the printed parent chain.

B1: Antibody No. A001 (ADI-26906) Fab (Fab, V domains shown)
VH: QVQLVQSGAEVKKPGASVKVSCKASGFNIKDYYMHWVRQAPGQRLEWMGWIDLENANTIYDAKFQGRVTITRDTSASTAYMELSSLRSEDTAVYYCARDAYGRYFYDVWGQGTLVTVSS
VL: DIVMTQSPDSLAVSLGERATINCKSSQSLLNARTGKNYLAWYQQKPGQPPKLLIYWASTRESGVPDRFSGSGSGTDFTLTISSLQAEDVAVYYCKQSYSRRTFGGGTKVEIK
notes: Fab by papain digestion of the IgG1
B2: Antibody No. A002 (ADI-50024) Fab (Fab, V domains shown)
VH: B1 VH with M48I, I59V
VL: B1 VL with T5S, E61S, K95V, S99F
notes: as for B1
B3: Antibody No. V010 (ADI-70327) IgG1 (antibody, V domains shown)
VH: B1 VH with N28D, M48I, D52E, A56D, N57D, I59V
VL: B1 VL with T5S, E61S, K95V, S99F
notes: IgG1, CHO-produced
B4: Antibody No. V013 (ADI-70330) IgG1 (antibody, V domains shown)
VH: B1 VH with K30D, M48I, I59V, Y60D
VL: B1 VL with T5S, E61S, K95V, S99F
notes: IgG1, CHO-produced
B5: Antibody No. V009 (ADI-70326) IgG1 (antibody, V domains shown)
VH: B1 VH with N28D, M48I, D52E, N57D, I59V
VL: B1 VL with T5S, E61S, K95V, S99F
notes: IgG1, CHO-produced

Tests used:
[1] = target: T1, Human CD3εδ Fc heterodimer (Hu CD3ε Fc + CD3δ Fc-HIS) (human, UniProt P07766 22-126; P04234 22-100); assay: BLI (Octet), CD3εδ Fc on AHC sensor, 100 nM Fab
T1 construct: range 22-126;range 22-100; Made in HEK 293 cells with a heterologous signal peptide; also called Hu CD3εδ-Fc; CD3εδ Fc-HIS heterodimer; not shown: Fc; Fc followed by HIS tag
Method: (§1) Affinity of the anti-CD3 antibodies for CD3 was determined by measuring their kinetic constants (kₒₙ, koff, KD) on ForteBio Octet®. ForteBio affinity measurements were performed generally as previously described (Estep et al., MAbs. 2013 5(2):270-8). […] Sensors were equilibrated off-line in assay buffer for 30 minutes and then monitored on-line for 60 seconds for baseline establishment. For monovalent binding measurement, sensors with loaded CD3εδ Fc were exposed to 100 nM anti-CD3 Fab, as further described in Example 2 below] for 3 minutes, afterwards they were transferred to assay buffer for 3 minutes for off-rate measurement. Kinetics data were fit using a 1:1 binding model in the data analysis software provided by ForteBio.

[2] = target: T2, Cynomolgus CD3εδ Fc heterodimer (Cy CD3ε Fc + CD3δ Fc-HIS) (cynomolgus, UniProt Q95LI5 22-117; Q95LI8 22-100); assay: BLI (Octet), CD3εδ Fc on AHC sensor, 100 nM Fab
T2 construct: range 22-117;range 22-100; Made in HEK 293 cells with a heterologous signal peptide; also called Cy CD3εδ-Fc; cyno CD3εδ Fc; not shown: Fc; Fc followed by HIS tag
Method: as §1

[3] = target: T1, Human CD3εδ Fc heterodimer (Hu CD3ε Fc …); assay: BLI (Octet), Fab monovalent, pH 7.4
Method: (§2) ForteBio KD measurements (Biolayer interferometry; BLI). ForteBio affinity measurements were performed generally as previously described (Estep, P., et al., High throughput solution-based measurement of antibody-antigen affinity and epitope binning. MAbs, 2013. 5(2): p. 270-8.). Briefly, ForteBio affinity measurements were performed by loading IgGs or CD3εδ Fe-HIS heterodimer onto AHC sensors. Sensors were equilibrated off-line in assay buffer for 30 min and then monitored on-line for 60 seconds for baseline establishment. Sensors with loaded IgGs were exposed to 100 nM antigen (e.g., CD3) for 3 min, afterwards they were transferred to assay buffer for 10 min for off-rate measurement. Sensors loaded with CD3εδ Fe-HIS heterodimer were exposed to 100 nM anti-CD3 Fab for 3 min, afterwards they were transferred to assay buffer for 3 min or 10 min for off-rate measurement. Kinetics were analyzed using the 1:1 binding model. For measuring binding at different pHs, measurements were performed at pre-determined pHs (e.g., pH 7.4 and pH 6.0).
(§3) Anti-CD3 antibodies A001-A005, V002, V004, V007, V009, V010, V013, and V014-V019 were produced as IgG1s in CHO cells, and Fab fragments were generated from IgG1 antibodies by papain digestion and purification as described in Example 2. Human, cynomolgus, rhesus, and mouse CD3εδ Fc heterodimers were produced, and monovalent binding affinity and avidity at pH 7.4 and pH 6.0 were measured using the Octet® HTX instrument (ForteBio) as described in Example 2.

[4] = target: T2, Cynomolgus CD3εδ Fc heterodimer (Cy …); assay: BLI (Octet), Fab monovalent, pH 7.4
Method: as §2, §3

[5] = target: T3, Rhesus CD3εδ Fc heterodimer (rhesus); assay: BLI (Octet), Fab monovalent, pH 7.4
T3 construct: extracellular domain; also called Rh CD3εδ-Fc
Method: as §2, §3

[6] = target: T1, Human CD3εδ Fc heterodimer (Hu CD3ε Fc …); assay: BLI (Octet), Fab monovalent, pH 6.0
Method: as §2, §3

[7] = target: T2, Cynomolgus CD3εδ Fc heterodimer (Cy …); assay: BLI (Octet), Fab monovalent, pH 6.0
Method: as §2, §3

[8] = target: T1, Human CD3εδ Fc heterodimer (Hu CD3ε Fc …); assay: SPR (Biacore), Fab over immobilized CD3εδ Fc, pH 6.0
Method: (§4) Anti-CD3 antibodies A001-A005, V002, V004, V007, V009, V010, V013, and V014-V019 were produced in CHO cells, and Fab fragments were generated from IgG1 antibodies by papain digestion and purification as described in Example 2. Monovalent binding affinity at pH 7.4 and pH 6.0 was measured via surface plasmon resonance (SPR). Briefly, human or cynomolgus CD3εδ Fe heterodimer produced as described in Example 2 was immobilized to a CM5 sensor chip in a Biacore® X100 (Cytiva, previously GE Healthcare Life Sciences) to a response level of ˜500 RUs. Fabs were then injected at 3-fold increasing concentrations, ranging from 0.74-180 nM. The sensor chip was doubly regenerated between cycles using 0.35 M EDTA and 0.1 M NaOH. The resulting data were double reference subtracted and fit to a 1:1 binding model using Biacore® Evaluation Software.

[9] = target: T2, Cynomolgus CD3εδ Fc heterodimer (Cy …); assay: as above
Method: as §4

[10] = target: T1, Human CD3εδ Fc heterodimer (Hu CD3ε Fc …); assay: SPR (Biacore), Fab over Hu CD3εδ-Fc; sensorgram inset tied by a line to the filled square (parent antibody) labelled A001; pH not given on the sheet
[11] = target: T1, Human CD3εδ Fc heterodimer (Hu CD3ε Fc …); assay: SPR (Biacore), Fab over immobilized CD3εδ Fc, pH 7.4
Method: as §4

[12] = target: T2, Cynomolgus CD3εδ Fc heterodimer (Cy …); assay: as above
Method: as §4

[13] = target: T1, Human CD3εδ Fc heterodimer (Hu CD3ε Fc …); assay: SPR (Biacore), Fab over Hu CD3εδ-Fc; sensorgram inset tied by a line to the filled square (parent antibody) labelled A002; pH not given on the sheet
[14] = target: T4, Cynomolgus CD3 on HSC-F cells (cynomolgus, UniProt Q95LI5 22-198); assay: flow cytometry, 100 nM IgG
T4 construct: whole, on cells; Target is the endogenous CD3 complex on cells; also called Cyno CD3 HSC-F cells; Cyno CD3+ HSC-F cells
Method: (§5) Specificity of the anti-CD3 antibodies for human CD3+ Jurkat cells and Cynomolgus monkey HSC-F cells was determined using a FACS cell binding assay. Briefly, cells were thawed and washed with cold PBSF buffer (PBS+0.1% BSA, pH 7.4). About 200,000 cells were aliquoted per well of a 96-well plate and pelleted by centrifugation (5 minutes at 500×g). The cells were washed and resuspended in 100 μl PBSF with CHO-produced anti-CD3 IgG antibody (100 nM). The mixture (cells+antibody) was incubated for 20 minutes on ice, then washed twice with PBSF. Cells were resuspended in 50 μl of propidium iodide (1:500 dilution) and anti-human IgG-RPE (1:100 dilution) prepared in PBSF, then incubated for 20 minutes on ice in the dark before cells were washed twice with PBSF. Binding was analyzed on FACS Canto II. Also shown are results using cells without CD3 [CHO-S cells, Jurkat CD3 knockout (CD3−) cells, and HEK cells] for comparison, including results with Jurkat CD3-cells combined with anti-CD3 antibody Fab fragments (100 nM).

[15] = target: T5, Human CD3 on CD3+ Jurkat cells (human, UniProt P07766 23-207); assay: flow cytometry, 100 nM IgG
T5 construct: whole, on cells; Target is the endogenous CD3 complex on cells; also called Human CD3+ Jurkat cells
Method: as §5

[16] = target: T4, Cynomolgus CD3 on HSC-F cells; assay: flow cytometry, 100 nM IgG1, pH 7.4
Method: (§6) Cell binding assays. CD3+ human Jurkat cells (ATCC) and CHO-S cells (Invitrogen/ThermoFisher) were thawed and washed with cold PBSF buffer, pH 7.4 (PBS+0.1% BSA, pH 7.4). About 200,000 cells were aliquoted per well of a 96-well plate (FACS Assay Plate VWR BD 353263) and pelleted by centrifugation (5 minutes at 500×g). The cells were washed with either PBSF pH 7.4 or PBSF pH 6.0 (PBS+0.1% BSA, pH 6.0), and then resuspended in 100 μl in either PBSF pH 7.4 or PBSF pH 6.0 with IgG1 antibody (100 nM) produced in yeast as described above or in CHO cells. The mixture (cells+antibody) was incubated for 20 minutes on ice, then washed twice with either PBSF pH 7.4 or PBSF pH 6.0. Cells were resuspended in 50 μl of propidium iodide (Roche; 1:500 dilution) and anti-human IgG-RPE (Southern Biotech; 1:100 dilution) prepared in either PBSF pH 7.4 or PBSF pH 6.0, then incubated for 20 minutes on ice in the dark before cells were washed twice with either PBSF pH 7.4 or PBSF pH 6.0. Binding was analyzed on FACS Canto II.
(§7) Anti-CD3 antibodies A001-A005, V002, V004, V007, V009, V010, V013, and V014-V019 were produced as IgG1s in CHO cells, and binding to human CD3+ Jurkat cells and cynomolgus CD3+ HSC-F cells at pH 7.4 was analyzed by flow cytometry as described in Example 2. NCB (Normalized Cell Binding) values were calculated based on control and sample MFI values as NCB={(Sample MFI)−(Secondary only MFI)}/(Secondary only MFI).

[17] = target: T5, Human CD3 on CD3+ Jurkat cells; assay: flow cytometry, 100 nM IgG1, pH 7.4
Method: as §6, §7

T4 sequence (Q95LI5 22-198): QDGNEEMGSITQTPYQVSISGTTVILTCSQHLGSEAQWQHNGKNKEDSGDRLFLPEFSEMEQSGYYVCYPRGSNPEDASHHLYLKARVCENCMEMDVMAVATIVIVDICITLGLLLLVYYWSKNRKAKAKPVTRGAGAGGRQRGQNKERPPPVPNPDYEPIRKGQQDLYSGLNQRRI
T5 sequence (P07766 23-207): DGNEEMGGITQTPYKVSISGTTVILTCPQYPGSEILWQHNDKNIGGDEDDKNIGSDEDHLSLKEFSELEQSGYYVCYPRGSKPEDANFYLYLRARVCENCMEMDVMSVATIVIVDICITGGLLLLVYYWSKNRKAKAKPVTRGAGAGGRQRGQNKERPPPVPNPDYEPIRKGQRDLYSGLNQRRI
T2 sequence (Q95LI5 22-117, stated change not applied, form in doubt, chain 1 of 2): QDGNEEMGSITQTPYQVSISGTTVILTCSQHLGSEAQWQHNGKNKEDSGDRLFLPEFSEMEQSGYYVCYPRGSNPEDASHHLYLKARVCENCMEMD
T2 sequence (Q95LI8 22-100, stated change not applied, form in doubt, chain 2 of 2): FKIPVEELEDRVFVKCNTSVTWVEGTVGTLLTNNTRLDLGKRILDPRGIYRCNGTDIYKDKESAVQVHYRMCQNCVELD
T1 sequence (P07766 22-126, stated change not applied, form in doubt, chain 1 of 2): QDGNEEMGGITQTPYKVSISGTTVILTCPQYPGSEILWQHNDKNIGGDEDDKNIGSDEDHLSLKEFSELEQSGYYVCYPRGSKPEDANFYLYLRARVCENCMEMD
T1 sequence (P04234 22-100, stated change not applied, form in doubt, chain 2 of 2): as the sequence (Q95LI8 22-100, stated change not applied, form in doubt, chain 2 of 2) above, with V5I, K15N, V20I, T32S, N33D, N34I, A64T, N74S counted along it

Binder | Kd [1] | Kd [2] | Kd [3] | Kd [4] | Kd [5] | Kd [6] | Kd [7] | Kd [8] | Kd [9] | Kd [10] | Kd [11] | Kd [12] | Kd [13] | MFI [14] | MFI [15] | NCB (Normalized Cell Binding) [16] | NCB (Normalized Cell Binding) [17]
B1 | 2.81 nM | 2.9 nM | 6 nM | 5.9 nM | 6.1 nM | 5.8 nM | 5.9 nM | 1.3 nM | 1.9 nM | 2 nM | 1.1 nM | 1.1 nM | – | – | – | – | –
B2 | 0.5 nM | 0.57 nM | 1 nM | 1.3 nM | 1.2 nM | 1.3 nM | 1.7 nM | 0.31 nM | 0.2 nM | – | 0.059 nM | 0.076 nM | 0.244 nM | – | – | – | –
B3 | – | – | – | – | – | – | – | – | – | – | – | – | – | 5860 MFI | 2910 MFI | 378 | 298
B4 | – | – | – | – | – | – | – | – | – | – | – | – | – | 5740 MFI | 2950 MFI | 374 | 295
B5 | – | – | – | – | – | – | – | – | – | – | – | – | – | 6230 MFI | 3070 MFI | 396 | 309
